Test results as given in PMC4526632.

Biological target: T1, recombinant mouse N-cadherin-Fc chimera (N-cadherin extracellular domain-Fc fusion protein) (mouse) (UniProt P15116)
T1 sequence: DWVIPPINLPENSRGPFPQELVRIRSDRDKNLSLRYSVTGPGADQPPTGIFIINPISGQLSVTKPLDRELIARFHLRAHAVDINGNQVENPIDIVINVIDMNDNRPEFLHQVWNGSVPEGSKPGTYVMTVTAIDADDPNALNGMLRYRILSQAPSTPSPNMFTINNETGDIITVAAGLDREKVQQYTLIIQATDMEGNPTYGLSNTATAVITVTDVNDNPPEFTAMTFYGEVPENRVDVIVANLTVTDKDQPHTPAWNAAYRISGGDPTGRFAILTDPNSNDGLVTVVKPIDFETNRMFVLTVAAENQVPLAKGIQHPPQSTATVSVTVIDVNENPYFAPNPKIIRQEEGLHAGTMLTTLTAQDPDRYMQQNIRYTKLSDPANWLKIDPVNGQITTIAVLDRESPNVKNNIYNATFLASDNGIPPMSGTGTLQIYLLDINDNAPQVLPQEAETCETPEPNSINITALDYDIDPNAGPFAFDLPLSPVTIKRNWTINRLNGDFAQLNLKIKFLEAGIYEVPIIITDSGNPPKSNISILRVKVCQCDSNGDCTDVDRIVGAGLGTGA

cell surface N-cadherin of ESC/iPSC-derived neural progenitor cells (from UniProt P15116 160-906) (natural protein)
Nanog-GFP negative cells by flow cytometry after plating dissociated iPSC-derived neurospheres on N-cad-Fc for 48 h (30% of cells on gelatin expressed Nanog): > 97%
